Sequences and labels used below:
B1: variant CD80 IgV-Fc (inert) H18Y/E35D/M47V/V68M/A71G (Fc fusion)
chain: VIHVTKEVKEVATLSCGYNVSVEELAQTRIYWQKDKKMVLTMMSGDVNIWPEYKNRTIFDITNNLSIMILGLRPSDEGTYECVVLKYEKDAFKREHLAEVTLSVKAD
B2: variant CD80 IgV-Fc (inert) H18V/A26K/E35D/M47L/V68M/A71G (Fc fusion)
chain: B1 chain with Y18V, A26K, V47L
B3: variant CD80 IgV-Fc (inert) H18V/E35D/M47V/V68M/A71G/D90G (Fc fusion)
chain: B1 chain with Y18V, D90G
B4: variant CD80 IgV-Fc (inert) H18Y/E35D/M47V/V68L/A71G/D90G (Fc fusion)
chain: B1 chain with M68L, D90G
B5: variant CD80 IgV-Fc (inert) H18C/A26P/E35D/M47L/V68M/A71G (Fc fusion)
chain: B1 chain with Y18C, A26P, V47L
B6: variant CD80 IgV-Fc (inert) H18I/A26P/E35D/M47V/V68M/A71G (Fc fusion)
chain: B1 chain with Y18I, A26P
B7: variant CD80 IgV-Fc (inert) H18Y/A26P/E35D/M47I/V68M/A71G (Fc fusion)
chain: B1 chain with A26P, V47I
B8: variant CD80 IgV-Fc (inert) H18T/A26N/E35D/M47L/V68M/A71G (Fc fusion)
chain: B1 chain with Y18T, A26N, V47L
B9: CD80 E24G/R29D/Y31L/Q33H/K36G/M38I/T41A/M43R/M47T/F59L/E81V/L85R/K89N/A91T/F92P/K93V/R94L/H96R/N149S/C182S ECD-Fc (Fc fusion)
chain: VIHVTKEVKEVATLSCGHNVSVEGLAQTDILWHKEGKIVLAMRSGDTNIWPEYKNRTILDITNNLSIVILALRPSDEGTYVCVVRKYENDTPVLERLAEVTLSVKADFPTPSISDFEIPTSNIRRIICSTSGGFPEPHLSWLENGEELSAINTTVSQDPETELYAVSSKLDFNMTTNHSFMSLIKYGHLRVNQTFNWNTTKQEHFPDN
B10: CD80 R29V/M43Q/E81R/L85I/K89R/D90L/A91E/F92N/K93Q/R94G ECD-Fc (Fc fusion)
chain: VIHVTKEVKEVATLSCGHNVSVEELAQTVIYWQKEKKMVLTMQSGDMNIWPEYKNRTIFDITNNLSIVILALRPSDEGTYRCVVIKYERLENQGEHLAEVTLSVKADFPTPSISDFEIPTSNIRRIICSTSGGFPEPHLSWLENGEELNAINTTVSQDPETELYAVSSKLDFNMTTNHSFMCLIKYGHLRVNQTFNWNTTKQEHFPDN
B11: CD80 A12V/S15F/Y31H/M38L/T41G/M43L/D90N/T130A/P137L/N149D/N152T ECD-Fc (Fc fusion)
chain: VIHVTKEVKEVVTLFCGHNVSVEELAQTRIHWQKEKKLVLGMLSGDMNIWPEYKNRTIFDITNNLSIVILALRPSDEGTYECVVLKYEKNAFKREHLAEVTLSVKADFPTPSISDFEIPTSNIRRIICSASGGFPELHLSWLENGEELDAITTTVSQDPETELYAVSSKLDFNMTTNHSFMCLIKYGHLRVNQTFNWNTTKQEHFPDN
B12: CD80 S44P/L70Q/A91G/T130A ECD-Fc (Fc fusion)
chain: VIHVTKEVKEVATLSCGHNVSVEELAQTRIYWQKEKKMVLTMMPGDMNIWPEYKNRTIFDITNNLSIVIQALRPSDEGTYECVVLKYEKDGFKREHLAEVTLSVKADFPTPSISDFEIPTSNIRRIICSASGGFPEPHLSWLENGEELNAINTTVSQDPETELYAVSSKLDFNMTTNHSFMCLIKYGHLRVNQTFNWNTTKQEHFPDN
B13: CD80 A91G/L102S ECD-Fc (Fc fusion)
chain: B12 chain with P44S, Q70L, L102S, A130T
B14: CD80 L70Q/A91G/T110A/I118V/T120S/T130A ECD-Fc (Fc fusion)
chain: B12 chain with P44S, T110A, I118V, T120S
B15: CD80 V22A/L70Q/S121P ECD-Fc (Fc fusion)
chain: B12 chain with V22A, P44S, G91A, S121P, A130T
B16: CD80 I67F/L70R/E88G/A91G/I118V/T120S/T130A ECD-Fc (Fc fusion)
chain: B12 chain with P44S, I67F, Q70R, E88G, I118V, T120S
B17: CD80 I67T/L70Q/A91G/I118V/T120S ECD-Fc (Fc fusion)
chain: B12 chain with P44S, I67T, I118V, T120S, A130T, N196H
B18: CD80 A91G/F92L/F108L/I118V/T120S ECD-Fc (Fc fusion)
chain: B12 chain with P44S, Q70L, F92L, F108L, I118V, T120S, A130T
B19: CD80 K36G/K37Q/M38I/L40M ECD-Fc (Fc fusion)
chain: B12 chain with K36G, K37Q, M38I, L40M, P44S, Q70L, G91A, A130T
B20: CD80 K37E/F59S/L70Q/A91G/T120S/T130A ECD-Fc (SEQ ID NO 1397) (Fc fusion)
chain: B12 chain with K37E, P44S, F59S, I118V, T120S, K185E

Substitutions are numbered along the chain they refer to. Names may count otherwise.

The first assay has as its target human PD-L1 (human) (UniProt Q9NZQ7). Nature of the assay: flow cytometry, CHO cells stably expressing PD-L1. (Flow cytometry measures light scatter and fluorescence of single cells or particles in a stream.)
In turn, B1 registered an MFI at 33.3 nM of 64900 MFI.

In turn, B2 gave an MFI at 33.3 nM of 67300 MFI.

Turning to B3, the MFI at 33.3 nM came out at 43600 MFI.

Molecule B4 came in with an MFI at 33.3 nM of 47900 MFI.

The molecule B5 returned an MFI at 33.3 nM of 67000 MFI.

As for B6, the MFI at 33.3 nM is 64900 MFI.

B7 showed an MFI at 33.3 nM of 54500 MFI.

B8 had an MFI at 33.3 nM of 68500 MFI.

A further assay addresses human CTLA-4 (human) (UniProt P16410). Nature of the assay: flow cytometry, CHO cells stably expressing CTLA4.
The molecule B1 registered an MFI at 33.3 nM of 23600 MFI.

Regarding B2, the MFI at 33.3 nM was determined as 22900 MFI.

Regarding B3, the MFI at 33.3 nM was 16800 MFI.

B4: the MFI at 33.3 nM was 16500 MFI.

As to B5, the MFI at 33.3 nM is 23400 MFI.

As for B6, the MFI at 33.3 nM came out at 21900 MFI.

On to B7, for which the MFI at 33.3 nM is 12200 MFI.

B8 displayed an MFI at 33.3 nM of 20900 MFI.

Another assay has as its target CD28 (human) (UniProt P10747). Nature of the assay: flow cytometry, Jurkat cells (CD28).
On to B1, for which the MFI at 33.3 nM stood at 3230 MFI.

In turn, B2 displayed an MFI at 33.3 nM of 3640 MFI.

Take B3: the MFI at 33.3 nM came out at 2120 MFI.

In turn, B4 yielded an MFI at 33.3 nM of 2550 MFI.

Regarding B5, the MFI at 33.3 nM stood at 1910 MFI.

In turn, B6 registered an MFI at 33.3 nM of 2570 MFI.

B7 had an MFI at 33.3 nM of 5120 MFI.

Turning to B8, the MFI at 33.3 nM turned out to be 1370 MFI.

For a further assay, the target named is human PD-L1 (human) (UniProt Q9NZQ7). Nature of the assay: flow cytometry, Expi293F cells transfected with PD-L1.
Chain of human PD-L1 (human) (Q9NZQ7 19-290): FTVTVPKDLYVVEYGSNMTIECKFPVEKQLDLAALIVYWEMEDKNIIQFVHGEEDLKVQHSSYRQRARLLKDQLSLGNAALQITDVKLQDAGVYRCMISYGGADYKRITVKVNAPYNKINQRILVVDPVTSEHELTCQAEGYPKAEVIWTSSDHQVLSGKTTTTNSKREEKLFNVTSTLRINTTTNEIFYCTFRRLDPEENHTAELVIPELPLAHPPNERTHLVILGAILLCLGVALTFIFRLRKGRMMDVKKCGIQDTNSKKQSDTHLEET
As to B9, the MFI is 1120 MFI and the parental ratio was found to be 0.06.

Regarding B10, the MFI worked out at 1580 MFI and the parental ratio was 0.09.

With B11, the MFI was determined as 5 MFI and the parental ratio came to 0.08.

For B12, the MFI was found to be 5 MFI and the parental ratio turned out to be 0.07.

On to B13, for which the MFI was 5 MFI and the parental ratio was found to be 0.08.

B14: the MFI was determined as 5 MFI and the parental ratio was 0.07.

Consider B15, for which the MFI turned out to be 5 MFI and the parental ratio was found to be 0.07.

B16: the MFI came out at 6 MFI and the parental ratio was 0.08.

Regarding B17, the MFI is 5 MFI and the parental ratio came to 0.08.

As to B18, the MFI was determined as 16 MFI and the parental ratio came out at 0.11.

For B19, the MFI was determined as 959 MFI and the parental ratio is 0.05.

With B20, the MFI turned out to be 6 MFI and the parental ratio is 0.08.

The target of another assay is human CTLA-4 (human) (UniProt P16410). Nature of the assay: flow cytometry, CHO/CTLA4 cells; MFI over CD80 WT IgV-Fc.
Chain of human CTLA-4 (human) (P16410 36-223): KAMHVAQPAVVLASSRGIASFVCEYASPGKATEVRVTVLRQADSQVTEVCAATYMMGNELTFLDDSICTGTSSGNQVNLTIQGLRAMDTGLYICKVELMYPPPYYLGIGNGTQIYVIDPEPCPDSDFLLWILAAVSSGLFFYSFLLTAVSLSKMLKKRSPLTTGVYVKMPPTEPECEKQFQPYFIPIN
Molecule B1 gave a Fold change to WT CD80 of 17.1 fold.

On to B2, for which the Fold change to WT CD80 stood at 16.6 fold.

In the case of B3, the Fold change to WT CD80 turned out to be 12.1 fold.

The molecule B4 displayed a Fold change to WT CD80 of 11.9 fold.

Molecule B5 returned a Fold change to WT CD80 of 16.9 fold.

Consider B6, for which the Fold change to WT CD80 was found to be 15.8 fold.

In turn, B7 registered a Fold change to WT CD80 of 8.8 fold.

B8 showed a Fold change to WT CD80 of 15.1 fold.

For a further assay, the target named is CD28 (human) (UniProt P10747). Nature of the assay: flow cytometry, Jurkat cells (CD28); MFI over CD80 WT IgV-Fc.
With B1, the Fold change to WT CD80 is 31.6 fold.

Regarding B2, the Fold change to WT CD80 is 35.7 fold.

Molecule B3 showed a Fold change to WT CD80 of 20.7 fold.

Take B4: the Fold change to WT CD80 was 25 fold.

The molecule B5 had a Fold change to WT CD80 of 18.7 fold.

Take B6: the Fold change to WT CD80 is 25.2 fold.

Turning to B7, the Fold change to WT CD80 was 50.2 fold.

In turn, B8 gave a Fold change to WT CD80 of 13.4 fold.

Another assay deals with human CTLA-4 (human) (UniProt P16410). Nature of the assay: flow cytometry, Expi293F cells transfected with CTLA-4.
For B9, the MFI stood at 1020 MFI and the parental ratio was 0.02.

On to B10, for which the MFI is 996 MFI and the parental ratio worked out at 0.02.

Take B11: the MFI was 6 MFI and the parental ratio was 0.03.

Regarding B12, the MFI came out at 134 MFI and the parental ratio was determined as 0.64.

With B13, the MFI is 6 MFI and the parental ratio turned out to be 0.03.

Turning to B14, the MFI is 14 MFI and the parental ratio stood at 0.07.

As to B15, the MFI amounted to 7 MFI and the parental ratio was determined as 0.04.

Turning to B16, the MFI came to 6 MFI and the parental ratio turned out to be 0.03.

Consider B17, for which the MFI amounted to 160 MFI and the parental ratio was 0.77.

As for B18, the MFI turned out to be 128 MFI and the parental ratio worked out at 0.61.

B19: the MFI is 1400 MFI and the parental ratio came to 0.03.

As for B20, the MFI was 74 MFI and the parental ratio was 0.36.

The target in another assay is CD28 (human) (UniProt P10747). Nature of the assay: flow cytometry, Expi293F cells transfected with CD28.
For B9, the MFI is 1070 MFI and the parental ratio came to 0.08.

Consider B10, for which the MFI stood at 1030 MFI and the parental ratio stood at 0.08.

With B11, the MFI worked out at 6 MFI and the parental ratio was determined as 0.06.

B12: the MFI was determined as 88 MFI and the parental ratio stood at 0.92.

Take B13: the MFI was found to be 6 MFI and the parental ratio was found to be 0.06.

In the case of B14, the MFI was found to be 8 MFI and the parental ratio was determined as 0.09.

As to B15, the MFI is 5 MFI and the parental ratio worked out at 0.06.

With B16, the MFI turned out to be 5 MFI and the parental ratio came out at 0.05.

B17: the MFI amounted to 98 MFI and the parental ratio amounted to 1.03.

Consider B18, for which the MFI is 50 MFI and the parental ratio stood at 0.53.

As for B19, the MFI was determined as 1170 MFI and the parental ratio was 0.09.

Consider B20, for which the MFI was 20 MFI and the parental ratio was determined as 0.21.

For a further assay, the target named is human PD-L1 (human) (UniProt Q9NZQ7). Nature of the assay: flow cytometry, CHO/PD-L1 cells; MFI over CD80 WT IgV-Fc.
The molecule B1 displayed a Fold change to WT CD80 of 393 fold.

Molecule B2 registered a Fold change to WT CD80 of 408 fold.

For B3, the Fold change to WT CD80 worked out at 264 fold.

As for B4, the Fold change to WT CD80 amounted to 290 fold.

For B5, the Fold change to WT CD80 was 406 fold.

As to B6, the Fold change to WT CD80 stood at 393 fold.

The molecule B7 yielded a Fold change to WT CD80 of 330 fold.

The molecule B8 showed a Fold change to WT CD80 of 415 fold.

Values taken from patent publication US20220177587A1, “METHODS AND USES OF VARIANT CD80 FUSION PROTEINS AND RELATED CONSTRUCTS” (Alpine Immune Sciences, Inc., priority 2018, published 2022).
